Data published in US7902330 (ALBERT EINSTEIN COLLEGE OF MEDICINE OF YESHIVA UNIVERSITY, dated 2011).
Starred links: 1 amine or outer side, 2 acyl side, 3 side chain; linkers in the order of their positions; H or OH if unused. Non-standard residues stand in square brackets, D forms with d. No end group written: not given here. *: point of attachment. 4‑nitrohippuryl = O=C(NCC(=O)*)c1ccc([N+](=O)[O-])cc1; Benzoyl(4-(pyrrol-1-yl)) = O=C(c1ccc(-n2cccc2)cc1)*; 10‑hydroxydecanoyl = O=C(CCCCCCCCCO)*; 2,3‑dihydroxybenzyl = Oc1cccc(C*)c1O; Cysteamide = C(CS[*:3])N[*:1]; Dap = NC[C@H](N)C(=O)O

Legend:
protein kinase Cα [1] = target: T1, protein kinase Cα (UniProt P17252 1-672, limits assumed); assay: PKCα 33P kinase assay, Ki obtained by varying the concentration of peptide substrate Ac-Ser-Phe-Arg-Arg-Arg-NH2
T1 construct: also called PKCα; PKC α
Description: Subsequent assay workup and scintillation counting were performed as described under "Protein Kinase C α, β and γ Assay (library screening)".
The reaction was initiated as described above. […] Following an additional 5 min incubation at ambient temperature, 75 µL from each reaction well was transferred into each well of a Unifilter (P81 cellulose phosphate paper) assay plate and washed four times with 0.1% phosphoric acid in water. […] IC$50$ values were calculated using GraFit (Erithacus Software Limited) and K_i values were calculated using Enzyme Kinetics, SigmaPlot (SPSS Inc.)

[2] = target: T2, protein kinase C τ (atypical; ι in the tables) (UniProt P41743 1-596); assay: cell-based or functional assay
T2 sequence (looked up): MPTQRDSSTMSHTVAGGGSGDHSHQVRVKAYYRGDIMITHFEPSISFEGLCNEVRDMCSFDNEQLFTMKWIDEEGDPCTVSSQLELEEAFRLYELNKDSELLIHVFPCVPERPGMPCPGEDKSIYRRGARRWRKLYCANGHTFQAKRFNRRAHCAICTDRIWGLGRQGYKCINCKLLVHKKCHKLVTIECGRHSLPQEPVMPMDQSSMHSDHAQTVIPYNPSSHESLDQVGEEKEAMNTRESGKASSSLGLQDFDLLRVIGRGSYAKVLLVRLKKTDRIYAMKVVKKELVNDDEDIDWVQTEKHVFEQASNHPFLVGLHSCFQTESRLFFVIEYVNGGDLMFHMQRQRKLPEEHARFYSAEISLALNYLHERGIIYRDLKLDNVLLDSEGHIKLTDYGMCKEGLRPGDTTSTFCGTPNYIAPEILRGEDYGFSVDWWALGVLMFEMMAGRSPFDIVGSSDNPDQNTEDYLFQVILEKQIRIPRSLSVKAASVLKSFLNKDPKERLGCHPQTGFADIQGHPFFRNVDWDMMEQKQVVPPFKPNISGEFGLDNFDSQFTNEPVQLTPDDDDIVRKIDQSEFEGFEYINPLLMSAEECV

protein kinase Cα [3] = target: T1, protein kinase Cα; assay: cell-based or functional assay
protein kinase C ε [4] = target: T3, protein kinase C ε (UniProt Q02156 1-737, limits assumed); assay: cell-based or functional assay
T3 sequence (looked up): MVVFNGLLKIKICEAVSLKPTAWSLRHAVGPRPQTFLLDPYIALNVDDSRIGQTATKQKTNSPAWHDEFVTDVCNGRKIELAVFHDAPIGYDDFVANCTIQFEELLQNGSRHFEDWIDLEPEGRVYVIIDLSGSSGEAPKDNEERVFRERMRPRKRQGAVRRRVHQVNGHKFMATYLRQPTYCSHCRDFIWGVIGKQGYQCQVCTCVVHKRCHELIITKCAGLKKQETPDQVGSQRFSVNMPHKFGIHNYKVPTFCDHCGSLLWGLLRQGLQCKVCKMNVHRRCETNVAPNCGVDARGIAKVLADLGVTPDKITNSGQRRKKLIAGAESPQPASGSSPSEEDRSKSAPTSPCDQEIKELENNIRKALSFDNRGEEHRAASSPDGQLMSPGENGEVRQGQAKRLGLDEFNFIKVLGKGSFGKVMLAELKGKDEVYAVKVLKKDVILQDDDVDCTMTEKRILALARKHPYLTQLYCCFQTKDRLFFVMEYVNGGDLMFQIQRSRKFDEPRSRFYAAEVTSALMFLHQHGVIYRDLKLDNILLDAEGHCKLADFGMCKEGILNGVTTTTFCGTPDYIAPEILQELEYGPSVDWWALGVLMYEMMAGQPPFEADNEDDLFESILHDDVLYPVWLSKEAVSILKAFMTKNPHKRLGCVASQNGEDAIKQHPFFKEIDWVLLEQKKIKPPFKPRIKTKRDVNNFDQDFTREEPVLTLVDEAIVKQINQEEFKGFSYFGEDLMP

protein kinase C ζ [5] = target: T4, protein kinase C ζ (UniProt Q05513 1-592, limits assumed); assay: cell-based or functional assay
T4 sequence (looked up): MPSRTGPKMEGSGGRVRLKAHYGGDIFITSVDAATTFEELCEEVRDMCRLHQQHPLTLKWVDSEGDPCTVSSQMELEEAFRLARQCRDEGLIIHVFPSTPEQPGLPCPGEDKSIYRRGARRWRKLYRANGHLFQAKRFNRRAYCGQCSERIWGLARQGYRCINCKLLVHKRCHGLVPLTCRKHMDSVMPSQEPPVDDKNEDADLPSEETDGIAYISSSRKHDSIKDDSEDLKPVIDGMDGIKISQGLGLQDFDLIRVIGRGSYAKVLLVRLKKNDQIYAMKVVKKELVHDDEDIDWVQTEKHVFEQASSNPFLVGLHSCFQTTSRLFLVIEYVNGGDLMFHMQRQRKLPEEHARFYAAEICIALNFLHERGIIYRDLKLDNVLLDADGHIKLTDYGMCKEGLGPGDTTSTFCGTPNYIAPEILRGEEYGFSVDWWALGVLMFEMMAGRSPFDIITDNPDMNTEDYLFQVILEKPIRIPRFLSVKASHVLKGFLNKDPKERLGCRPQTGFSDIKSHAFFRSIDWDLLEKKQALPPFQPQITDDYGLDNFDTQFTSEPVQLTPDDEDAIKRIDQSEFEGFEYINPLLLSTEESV

protein kinase C γ [6] = target: T5, protein kinase C γ (UniProt P05129 1-697, limits assumed); assay: cell-based or functional assay
protein kinase C θ [7] = target: T6, protein kinase C θ (UniProt Q04759 1-706, limits assumed); assay: cell-based or functional assay
protein kinase C βI [8] = target: T7, protein kinase C βI (UniProt P05771-1 1-671, limits assumed); assay: cell-based or functional assay
protein kinase C η [9] = target: T8, protein kinase C η (UniProt P24723 1-683, limits assumed); assay: cell-based or functional assay
protein kinase Cα [10] = target: T1, protein kinase Cα; assay: cell-based or functional assay; remark: listed apart in the source
[11] = target: T2, protein kinase C τ (atypical; printed ι …); assay: cell-based or functional assay; remark: listed apart in the source
protein kinase Cα [12] = target: T1, protein kinase Cα; assay: cell-based or functional assay; remark: listed apart in the source
protein kinase C ε [13] = target: T3, protein kinase C ε; assay: cell-based or functional assay; remark: listed apart in the source
protein kinase C ζ [14] = target: T4, protein kinase C ζ; assay: cell-based or functional assay; remark: listed apart in the source
protein kinase C γ [15] = target: T5, protein kinase C γ; assay: cell-based or functional assay; remark: listed apart in the source
protein kinase C θ [16] = target: T6, protein kinase C θ; assay: cell-based or functional assay; remark: listed apart in the source
protein kinase C βI [17] = target: T7, protein kinase C βI; assay: cell-based or functional assay; remark: listed apart in the source
protein kinase C η [18] = target: T8, protein kinase C η; assay: cell-based or functional assay; remark: listed apart in the source
[19] = target: T2, protein kinase C τ (atypical; printed ι …); assay: cell-based or functional assay; remark: listed apart in the source
protein kinase Cα [20] = target: T1, protein kinase Cα; assay: cell-based or functional assay; remark: listed apart in the source
protein kinase C ε [21] = target: T3, protein kinase C ε; assay: cell-based or functional assay; remark: listed apart in the source
protein kinase C ζ [22] = target: T4, protein kinase C ζ; assay: cell-based or functional assay; remark: listed apart in the source
protein kinase C γ [23] = target: T5, protein kinase C γ; assay: cell-based or functional assay; remark: listed apart in the source
protein kinase C θ [24] = target: T6, protein kinase C θ; assay: cell-based or functional assay; remark: listed apart in the source
protein kinase C βI [25] = target: T7, protein kinase C βI; assay: cell-based or functional assay; remark: listed apart in the source
protein kinase C η [26] = target: T8, protein kinase C η; assay: cell-based or functional assay; remark: listed apart in the source

T8 sequence (P24723 whole entry): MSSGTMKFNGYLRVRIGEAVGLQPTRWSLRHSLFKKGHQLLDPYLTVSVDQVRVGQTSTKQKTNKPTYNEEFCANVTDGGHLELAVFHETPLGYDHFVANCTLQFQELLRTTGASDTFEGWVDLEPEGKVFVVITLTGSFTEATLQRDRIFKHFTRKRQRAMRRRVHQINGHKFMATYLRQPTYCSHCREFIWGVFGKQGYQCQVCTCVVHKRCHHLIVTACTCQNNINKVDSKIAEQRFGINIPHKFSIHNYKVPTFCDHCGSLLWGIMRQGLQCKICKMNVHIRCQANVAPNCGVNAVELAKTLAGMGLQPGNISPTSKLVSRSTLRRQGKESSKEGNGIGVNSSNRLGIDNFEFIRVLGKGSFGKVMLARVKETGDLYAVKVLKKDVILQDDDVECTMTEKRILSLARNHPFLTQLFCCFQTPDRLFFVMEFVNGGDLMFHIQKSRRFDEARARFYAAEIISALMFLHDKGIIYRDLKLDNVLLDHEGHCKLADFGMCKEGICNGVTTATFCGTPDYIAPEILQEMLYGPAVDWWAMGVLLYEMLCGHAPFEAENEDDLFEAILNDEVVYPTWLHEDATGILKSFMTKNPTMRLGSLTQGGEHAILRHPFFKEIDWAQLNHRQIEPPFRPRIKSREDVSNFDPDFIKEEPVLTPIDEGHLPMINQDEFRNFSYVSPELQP
T6 sequence (Q04759 whole entry): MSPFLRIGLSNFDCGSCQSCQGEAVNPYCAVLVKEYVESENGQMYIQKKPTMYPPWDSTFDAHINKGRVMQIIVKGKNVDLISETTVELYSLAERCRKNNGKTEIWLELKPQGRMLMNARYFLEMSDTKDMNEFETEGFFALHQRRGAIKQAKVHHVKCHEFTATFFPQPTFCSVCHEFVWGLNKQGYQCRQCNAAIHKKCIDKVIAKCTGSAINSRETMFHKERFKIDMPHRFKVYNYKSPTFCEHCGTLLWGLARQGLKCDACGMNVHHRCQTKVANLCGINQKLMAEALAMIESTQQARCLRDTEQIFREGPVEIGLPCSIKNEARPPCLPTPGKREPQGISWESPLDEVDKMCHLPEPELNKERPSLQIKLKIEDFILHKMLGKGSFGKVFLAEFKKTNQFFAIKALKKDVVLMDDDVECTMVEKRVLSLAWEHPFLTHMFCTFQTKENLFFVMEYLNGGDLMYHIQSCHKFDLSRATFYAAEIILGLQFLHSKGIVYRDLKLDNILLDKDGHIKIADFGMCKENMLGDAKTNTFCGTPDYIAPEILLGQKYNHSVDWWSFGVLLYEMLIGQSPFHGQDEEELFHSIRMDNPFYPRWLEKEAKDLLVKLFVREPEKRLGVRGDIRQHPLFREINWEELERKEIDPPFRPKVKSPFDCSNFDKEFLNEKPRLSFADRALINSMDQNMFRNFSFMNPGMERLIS
T7 sequence (P05771 whole entry): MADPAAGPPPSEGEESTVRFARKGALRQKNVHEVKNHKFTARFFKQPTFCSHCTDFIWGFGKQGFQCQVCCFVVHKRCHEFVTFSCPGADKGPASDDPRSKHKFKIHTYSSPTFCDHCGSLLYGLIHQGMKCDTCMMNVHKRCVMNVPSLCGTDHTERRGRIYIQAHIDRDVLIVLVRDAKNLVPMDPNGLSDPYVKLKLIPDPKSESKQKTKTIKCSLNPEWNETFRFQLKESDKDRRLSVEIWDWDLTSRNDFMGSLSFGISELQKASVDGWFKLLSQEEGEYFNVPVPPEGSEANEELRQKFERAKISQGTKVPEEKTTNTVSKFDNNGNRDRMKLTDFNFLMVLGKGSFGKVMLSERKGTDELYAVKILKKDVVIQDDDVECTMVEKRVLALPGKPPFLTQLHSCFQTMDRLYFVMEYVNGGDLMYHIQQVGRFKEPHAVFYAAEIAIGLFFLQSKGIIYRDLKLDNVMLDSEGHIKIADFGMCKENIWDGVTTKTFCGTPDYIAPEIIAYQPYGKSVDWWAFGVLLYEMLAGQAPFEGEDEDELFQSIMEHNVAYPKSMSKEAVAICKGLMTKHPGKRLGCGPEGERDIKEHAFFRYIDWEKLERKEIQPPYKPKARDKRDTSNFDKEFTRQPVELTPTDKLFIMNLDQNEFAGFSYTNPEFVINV

B1: compound 6 (primary lead from library IV) (peptide)
peptide: ARRGALR[Dap](Benzoyl(4-(pyrrol-1-yl)))A-Cysteamide
modifications: also: further groups not given here
notes: also called peptide 6; Compound H
- Ki (protein kinase Cα [1]): 0.0008 µM
- selectivity for PKCα versus this isoform [2]: 940 fold
- IC50 as an inhibitor of histone III-S phosphorylation by PKCα (protein kinase Cα [3]): 0.0317 µM
- selectivity for PKCα versus this isoform (protein kinase C ε [4]): 600 fold
- selectivity for PKCα versus this isoform (protein kinase C ζ [5]): 640 fold
- selectivity for PKCα versus this isoform (protein kinase C γ [6]): 580 fold
- selectivity for PKCα versus this isoform (protein kinase C θ [7]): 1210 fold
- selectivity for PKCα versus this isoform (protein kinase C βI [8]): 385 fold
- selectivity for PKCα versus this isoform (protein kinase C η [9]): 1310 fold
- IC50, PKCα-catalysed phosphorylation of peptide substrate (33P assay) (protein kinase Cα [10]): 0.0019 µM

B2: Compound E (nonacylated free amine) (peptide)
peptide: H-RRQG[Dap]FMYF-Cysteamide
modifications: not fully specified (residue 5)
- Selectivity (IC50 relative to PKC βI = 1) [11]: 94 fold
- IC50, PKC kinase assay (33P, peptide substrate) (protein kinase Cα [12]): 3.1 µM
- Selectivity (IC50 relative to PKC βI = 1) (protein kinase Cα [12]): 387 fold
- IC50, PKC kinase assay (33P, peptide substrate) (protein kinase C ε [13]): 2.3 µM
- Selectivity (IC50 relative to PKC βI = 1) (protein kinase C ε [13]): 287 fold
- IC50, PKC kinase assay (33P, peptide substrate) (protein kinase C ζ [14]): 0.022 µM
- Selectivity (IC50 relative to PKC βI = 1) (protein kinase C ζ [14]): 2.8 fold
- IC50, PKC kinase assay (33P, peptide substrate) (protein kinase C γ [15]): 4.4 µM
- Selectivity (IC50 relative to PKC βI = 1) (protein kinase C γ [15]): 550 fold
- IC50, PKC kinase assay (33P, peptide substrate) (protein kinase C θ [16]): 14.2 µM
- Selectivity (IC50 relative to PKC βI = 1) (protein kinase C θ [16]): 1780 fold
- IC50, PKC kinase assay (33P, peptide substrate) (protein kinase C βI [17]): 0.008 µM
- Selectivity (IC50 relative to PKC βI = 1) (protein kinase C βI [17]): 1 fold
- IC50, PKC kinase assay (33P, peptide substrate) (protein kinase C η [18]): 13.2 µM
- Selectivity (IC50 relative to PKC βI = 1) (protein kinase C η [18]): 1650 fold

B3: Compound F (peptide)
peptide: {2,3‑dihydroxybenzyl}-RRQG[Dap](4‑nitrohippuryl)FMYF-Cysteamide
- IC50, PKC kinase assay (33P, peptide substrate) (protein kinase Cα [12]): 17 µM
- IC50, PKC kinase assay (33P, peptide substrate) (protein kinase C ε [13]): 8.8 µM
- IC50, PKC kinase assay (33P, peptide substrate) (protein kinase C ζ [14]): 3.6 µM
- IC50, PKC kinase assay (33P, peptide substrate) (protein kinase C γ [15]): 9 µM
- IC50, PKC kinase assay (33P, peptide substrate) (protein kinase C θ [16]): 13.7 µM
- IC50, PKC kinase assay (33P, peptide substrate) (protein kinase C βI [17]): 3.1 µM
- IC50, PKC kinase assay (33P, peptide substrate) (protein kinase C η [18]): 12.3 µM
- Fold selectivity (IC50), PKC δ = 1 [19]: 26 fold
- Fold selectivity (IC50), PKC δ = 1 (protein kinase Cα [20]): 944 fold
- Fold selectivity (IC50), PKC δ = 1 (protein kinase C ε [21]): 489 fold
- Fold selectivity (IC50), PKC δ = 1 (protein kinase C ζ [22]): 200 fold
- Fold selectivity (IC50), PKC δ = 1 (protein kinase C γ [23]): 500 fold
- Fold selectivity (IC50), PKC δ = 1 (protein kinase C θ [24]): 761 fold
- Fold selectivity (IC50), PKC δ = 1 (protein kinase C βI [25]): 172 fold
- Fold selectivity (IC50), PKC δ = 1 (protein kinase C η [26]): 683 fold

B4: compound 4 (diacetylated control peptide) (peptide)
peptide: Ac-ARRGALR[Dap](Ac)A-NH2
notes: also called peptide 4; starting parent peptide 4
- Ki (protein kinase Cα [1]): 350 µM
- IC50, PKCα-catalysed phosphorylation of peptide substrate (33P assay) (protein kinase Cα [10]): 1100 µM

B5: compound 3 (lead from library III) (peptide)
peptide: Ac-ARRGALR[Dap](Benzoyl(4-(pyrrol-1-yl)))A-Cysteamide
notes: also called peptide 3
- Ki (protein kinase Cα [1]): 0.55 µM
- IC50, PKCα-catalysed phosphorylation of peptide substrate (33P assay) (protein kinase Cα [10]): 4.7 µM

B6: Compound B (peptide)
peptide: Ac-RRQG[Dap](10‑hydroxydecanoyl)FMYF-Cysteamide
- IC50, PKC ζ kinase assay (protein kinase C ζ [5]): 0.85 µM
- IC50 relative to the diacetylated parent peptide A (protein kinase C ζ [5]): ~100 fold

B7: Compound A (diacetylated consensus derivative) (peptide)
peptide: Ac-RRQG[Dap](Ac)FMYF-Cysteamide
- IC50, PKC kinase assay (protein kinase C ζ [5]): 80 µM

B8: Compound C (peptide)
peptide: Ac-RRQG[Dap](4‑nitrohippuryl)FMYF-Cysteamide
SMILES: CSCC[C@H](NC(=O)[C@H](Cc1ccccc1)NC(=O)[C@H](CNC(=O)CNC(=O)c1ccc([N+](=O)[O-])cc1)NC(=O)CNC(=O)[C@H](CCC(N)=O)NC(=O)[C@H](CCCNC(=N)N)NC(=O)[C@H](CCCNC(=N)N)NC(C)=O)C(=O)N[C@@H](Cc1ccc(O)cc1)C(=O)N[C@@H](Cc1ccccc1)C(=O)NCCS
- IC50, PKC ζ kinase assay (protein kinase C ζ [5]): 6.4 µM
